One assay addresses HLA-A*02:01 (Homo sapiens, UniProt P04439, D140Y/D185E/D98H/E176V/E277Q/G131W/G231S/I119V/I121R/I166T/I218V/L300P/L318F/N151K/N90K/P208A/P217A/Q86G/Q94H/R138H/R169H/T345S). Nature of the assay: MHC binding assay (UV-ligand exchange, beta2m ELISA). The settings on record: peptide exchange yield, HLA-A*02:01, UV-ligand exchange. From the text:
Candidate peptides for T cell based therapies according to the present invention were further tested for their MHC binding capacity (affinity). The individual peptide-MHC complexes were produced by UV-ligand exchange, where a UV-sensitive peptide is cleaved upon UV-irradiation, and exchanged with the peptide of interest as analyzed. Only peptide candidates that can effectively bind and stabilize the peptide-receptive MHC molecules prevent dissociation of the MHC complexes. To determine the yield of the exchange reaction, an ELISA was performed based on the detection of the light chain (β2m) of stabilized MHC complexes. The assay was performed as generally described in Rodenko et al. (Rodenko et al., 2006).
96 well MAXISorp plates (NUNC) were coated over night with 2 ug/ml streptavidin in PBS at room temperature, washed 4× and blocked for 1 h at 37° C. in 2% BSA containing blocking buffer. Refolded HLA-A*02:01/MLA-001 monomers served as standards, covering the range of 15-500 ng/ml. Peptide-MHC monomers of the UV-exchange reaction were diluted 100 fold in blocking buffer. Samples were incubated for 1 h at 37° C., washed four times, incubated with 2 ug/ml HRP conjugated anti-β2m for 1 h at 37° C., washed again and detected with TMB solution that is stopped with […]. Absorption was measured at 450 nm. Candidate peptides that show a high exchange yield (preferably higher than 50%, most preferred higher than 75%) are generally preferred for a generation and production of antibodies or fragments thereof, and/or T cell receptors or fragments thereof, as they show sufficient avidity to the MHC molecules and prevent dissociation of the MHC complexes.
Background: ELISA stands for enzyme-linked immunosorbent assay.

The next assay concerns CD8+ T cells. Nature of the assay: In vitro T-cell priming assay with aAPCs loaded with peptide/MHC complexes and anti-CD28 (immunogenicity, multimer staining). It is filed as cell-based, human. The conditions noted are these: for Wells positive [%]: in vitro immunogenicity, HLA class I peptides, percentage of positive wells; for in vitro immunogenicity: donors / in vitro immunogenicity: wells: healthy HLA-A*02+ donors; for in vitro immunogenicity: donors: share of positive donors; for in vitro immunogenicity: wells: share of positive wells. From the text: In order to obtain information regarding the immunogenicity of the TUMAPs of the present invention, the inventors performed investigations using an in vitro T-cell priming assay based on repeated stimulations of CD8+ T cells with artificial antigen presenting cells (aAPCs) loaded with peptide/MHC complexes and anti-CD28 antibody.
In order to perform in vitro stimulations by artificial antigen presenting cells loaded with peptide-MHC complex (pMHC) and anti-CD28 antibody, the inventors first isolated CD8+ T cells from fresh HLA-A*02 leukapheresis products via positive selection using CD8 microbeads (Miltenyi Biotec, Bergisch-Gladbach, Germany) of healthy donors obtained from the University clinics Mannheim, Germany, after informed consent.
PBMCs and isolated CD8+ lymphocytes were incubated in T-cell medium (TCM) until use consisting of RPMI-Glutamax (Invitrogen, Karlsruhe, Germany) supplemented with 10% heat inactivated human AB serum (PAN-Biotech, Aidenbach, Germany), 100 U/ml Penicillin/100 μg/ml Streptomycin (Cambrex, Cologne, Germany), 1 mM sodium pyruvate (CC Pro, Oberdorla, Germany), 20 μg/ml Gentamycin (Cambrex). 2.5 ng/ml IL-7 (PromoCell, Heidelberg, Germany) and 10 U/ml IL-2 (Novartis Pharma, Nürnberg, Germany) were also added to the TCM at this step.
Generation of pMHC/anti-CD28 coated beads, T-cell stimulations and readout was performed in a highly defined in vitro system using four different pMHC molecules per stimulation condition and 8 different pMHC molecules per readout condition.
The purified co-stimulatory mouse IgG2a anti human CD28 Ab 9.3 (Jung et al., 1987) was chemically biotinylated using Sulfo-N-hydroxysuccinimidobiotin as recommended by the manufacturer (Perbio, Bonn, Germany). Beads used were 5.6 μm diameter streptavidin coated polystyrene particles (Bangs Laboratories, Illinois, USA).
pMHC used for positive and negative control stimulations were A*0201/MLA-001 (peptide […] (SEQ ID NO. 152) from modified Melan-A/MART-1) and A*0201/DDX5-001 ([…] from DDX5 (SEQ ID NO. 153)), respectively.
800.000 beads/200 μl were coated in 96-well plates in the presence of 4×12.5 ng different biotin-pMHC, washed and 600 ng biotin anti-CD28 were added subsequently in a volume of 200 μl. Stimulations were initiated in 96-well plates by co-incubating […] CD8+ T cells with 2×10^5 washed coated beads in 200 μl TCM supplemented with 5 ng/ml IL-12 (PromoCell) for 3 days at 37° C. Half of the medium was then exchanged by fresh TCM supplemented with 80 U/ml IL-2 and incubating was continued for 4 days at 37° C. This stimulation cycle was performed for a total of three times. For the pMHC multimer readout using 8 different pMHC molecules per condition, a two-dimensional combinatorial coding approach was used as previously described (Andersen et al., 2012) with minor modifications encompassing coupling to 5 different fluorochromes. Finally, multimeric analyses were performed by staining the cells with Live/dead near IR dye (Invitrogen, Karlsruhe, Germany), CD8-FITC antibody clone SK1 (BD, Heidelberg, Germany) and fluorescent pMHC multimers. For analysis, a BD LSRII SORP cytometer equipped with appropriate lasers and filters was used. Peptide specific cells were calculated as percentage of total CD8+ cells. Evaluation of multimeric analysis was done using the FlowJo software (Tree Star, Oregon, USA). In vitro priming of specific multimer+ CD8+ lymphocytes was detected by comparing to negative control stimulations.

With “1 (ALIVSLPYL; listed as Homo sapiens) [compound 1]”, the “Peptide exchange (MHC class I binding score)” value (shortened to “Peptide exchange”) in the assay with HLA-A*02:01 is recorded as “+++ (≥50 = +++)”. The “Wells positive [%]” value in the assay with CD8+ T cells is on record as “+ (<20% = +)”.
For the substance “2 (ILWREVVTL; listed as Homo sapiens) [compound 2]”, the “Peptide exchange” value in the assay with HLA-A*02:01 is reported as “+++ (≥50 = +++)”. In addition, in the assay on CD8+ T cells, the “Wells positive [%]” value is “+ (<20% = +)”.
Turning to “75 (FLIKSINLV; listed as Homo sapiens) [compound 75]”, in the assay with HLA-A*02:01, the “Peptide exchange” value is given as “+++ (≥50 = +++)”.
For “76 (VLADDHLIEV; listed as Homo sapiens) [compound 76]”, the “Peptide exchange” value with HLA-A*02:01 is given as “++ (≥20% = ++)”.
On to “77 (SLIKHKIML; listed as Homo sapiens) [compound 77]”, for which the “Peptide exchange” value in the assay with HLA-A*02:01 is given as “++ (≥20% = ++)”.
As to “78 (ALLDTVVQA; listed as Homo sapiens) [compound 78]”, the “Peptide exchange” value with HLA-A*02:01 was “++ (≥20% = ++)”.
Still for that read-out and setting: under “79 (ALADIVWRA; listed as Homo sapiens) [compound 79]” stands “+++ (≥50 = +++)”; under “80 (KLASMLETL; listed as Homo sapiens) [compound 80]”, “+++ (≥50 = +++)”.
The same measure, in the same setting: under “81 (SLLPALPKL; listed as Homo sapiens) [compound 81]” stands “++ (≥20% = ++)”; under “82 (SLLQATDFMSL; listed as Homo sapiens) [compound 82]”, “+++ (≥50 = +++)”.
In the case of “83 (IQWSIVPEV; listed as Homo sapiens) [compound 83]”, the “Peptide exchange” value with HLA-A*02:01 is reported as “+++ (≥50 = +++)”.
On to “84 (YLMDEGAHL; listed as Homo sapiens) [compound 84]”, for which the “Peptide exchange” value in the assay with HLA-A*02:01 was “++ (≥20% = ++)”.
For “85 (FVMSEIRTV; listed as Homo sapiens) [compound 85]”, the “Peptide exchange” value in the assay with HLA-A*02:01 is recorded as “+++ (≥50 = +++)”.
Turning to “86 (GLLQGKLALL; listed as Homo sapiens) [compound 86]”, the “Peptide exchange” value in the assay with HLA-A*02:01 is on record as “++ (≥20% = ++)”.
Still for that read-out and setting: next, “88 (TLAELHISL; listed as Homo sapiens) [compound 88]”: “++ (≥20% = ++)”.
Still for that read-out and setting: under “89 (SLLLAVTEV; listed as Homo sapiens) [compound 89]” stands “++ (≥20% = ++)”.
In the case of “90 (FTLEKNFVI; listed as Homo sapiens) [compound 90]”, the “Peptide exchange” value with HLA-A*02:01 is “++ (≥20% = ++)”.
On the same count and under the same terms, next, “91 (MLLSSLVSL; listed as Homo sapiens) [compound 91]”: “++ (≥20% = ++)”; “92 (FLFRDILEL; listed as Homo sapiens) [compound 92]”: “+++ (≥50 = +++)”.
The same measure, in the same setting: under “93 (GVMAGDIYSV; listed as Homo sapiens) [compound 93]” stands “++++ (≥75% = ++++)”.
As for “94 (ILHHKVYDL; listed as Homo sapiens) [compound 94]”, the “Peptide exchange” value in the assay with HLA-A*02:01 is “++ (≥20% = ++)”.
“96 (TLAETLVNL; listed as Homo sapiens) [compound 96]”: in the assay with HLA-A*02:01, the “Peptide exchange” value is on record as “+++ (≥50 = +++)”.
As for “97 (TLISELVQA; listed as Homo sapiens) [compound 97]”, the “Peptide exchange” value with HLA-A*02:01 is listed as “++ (≥20% = ++)”.
The same measure, in the same setting: next, “99 (GLAPHLEQI; listed as Homo sapiens) [compound 99]”: “++ (≥20% = ++)”; “100 (KLNVAPLAV; listed as Homo sapiens) [compound 100]”: “++ (≥20% = ++)”; “101 (HIYDKAFITV; listed as Homo sapiens) [compound 101]”: “++ (≥20% = ++)”.
In the case of “102 (LLFDVHTTL; listed as Homo sapiens) [compound 102]”, the “Peptide exchange” value with HLA-A*02:01 is “+++ (≥50 = +++)”.
Same read-out and setting: next, “103 (KLQDGLLHI; listed as Homo sapiens) [compound 103]”: “++ (≥20% = ++)”; “104 (ALFEGVVRQI; listed as Homo sapiens) [compound 104]”: “+++ (≥50 = +++)”; “105 (ALADLDELLIRA; listed as Homo sapiens) [compound 105]”: “+++ (≥50 = +++)”.
Still for that read-out and setting: next, “106 (VLMDLKALL; listed as Homo sapiens) [compound 106]”: “+++ (≥50 = +++)”; “107 (VLMDLKALLL; listed as Homo sapiens) [compound 107]”: “+++ (≥50 = +++)”.
Regarding “108 (VLISVLQAI; listed as Homo sapiens) [compound 108]”, the “Peptide exchange” value in the assay with HLA-A*02:01 is “++ (≥20% = ++)”.
For the substance “109 (YLWSRVEKL; listed as Homo sapiens) [compound 109]”, the “Peptide exchange” value with HLA-A*02:01 was “++++ (≥75% = ++++)”.
On the same count and under the same terms, under “110 (LLDLHSYLL; listed as Homo sapiens) [compound 110]” stands “++ (≥20% = ++)”.
For the substance “111 (TLLETEMLL; listed as Homo sapiens) [compound 111]”, the “Peptide exchange” value with HLA-A*02:01 is reported as “++ (≥20% = ++)”.
Same read-out and setting: under “112 (LLFDHLEPIEL; listed as Homo sapiens) [compound 112]” stands “+++ (≥50 = +++)”.
As for “113 (SLFDWNVKL; listed as Homo sapiens) [compound 113]”, the “Peptide exchange” value with HLA-A*02:01 was “+++ (≥50 = +++)”.
“114 (ALAVNISAA; listed as Homo sapiens) [compound 114]”: in the assay with HLA-A*02:01, the “Peptide exchange” value is “+++ (≥50 = +++)”.
On to “123 (YVDPVITSI; listed as Homo sapiens) [compound 123]”, for which, in the assay with CD8+ T cells, the “in vitro immunogenicity: donors” value is listed as “++++ (>=70% = ++++)” and the “in vitro immunogenicity: wells” value is recorded as “+ (<20% = +)”.
Take “127 (VLAPLFVYL; listed as Homo sapiens) [compound 127]”: in the assay with CD8+ T cells, the “in vitro immunogenicity: donors” value is recorded as “++++ (>=70% = ++++)” and the “in vitro immunogenicity: wells” value is recorded as “++ (20%-49% = ++)”.
Consider “143 (ALFVRLLALA; listed as Homo sapiens) [compound 143]”, for which, in the assay with CD8+ T cells, the “in vitro immunogenicity: donors” value is “+++ (50%-69% = +++)” and the “in vitro immunogenicity: wells” value is “+ (<20% = +)”.

These data come from US9993536B2, “Peptides and combination of peptides and scaffolds for use in immunotherapy against renal cell carcinoma (RCC) and other cancers” (immatics biotechnologies GmbH, priority 2015, dated 2018).
